One series has as its target VEGF165 (UniProt P15692-4 P15692-4:27-191). Description: methylene blue release from aptamer/nanomotor, fluorescence increase; linear response 2.5-30 nM VEGF165; human serum samples or PBS, 40 min. To be noted: chain copies: 2; label: methylene blue (non-covalently adsorbed). The protocol: (§1) In this example, the fabricated MB/aptamer/nanomotors of EXAMPLE 1 were guided by a magnetic field into solutions (human serum samples) containing various concentration of VEGF165 to react with the fabricated MB/aptamer/nanomotor for about 40 minutes. MB can specifically bind with guanine bases in ss-DNA and the used aptamer herein as a type of ss-DNA riches of guanine bases. The fabricated MB/aptamer/nanomotors were stored at about 4° C. in the refrigerator when they were not in use. Then, the MB/aptamer/nanomotors biosensor was guided to solutions containing the various concentration of VEGF165 tumor marker. Upon exposing MB/aptamer/nanomotor with VEGF165, the adsorbed MB to aptamers released to the solution and let to increase the fluorescence signal of MB. The proposed nanomotor may be used for ‘on-the-fly’ interaction of biological targets such as VEGF165 by functionalizing the gold surface of the nanomotor with various bio-receptors.
In FIG. 6B, relative fluorescence changes are calculated by F/F0, where F0 (7.8) and F are the fluorescence intensity without and with VEGF165, respectively, and excitation wavelength was 625 nm.

The target in series [1] is Human serum albumin (HSA) (Homo sapiens, UniProt P02768 P02768:25-609). Kind of series: selectivity control, 20 nM HSA in PBS; methylene blue release fluorescence; values only in figure. To be noted: label: methylene blue (non-covalently adsorbed). As to the method: as §1
Chain of Human serum albumin (HSA) (P02768 25-609, one chain of several): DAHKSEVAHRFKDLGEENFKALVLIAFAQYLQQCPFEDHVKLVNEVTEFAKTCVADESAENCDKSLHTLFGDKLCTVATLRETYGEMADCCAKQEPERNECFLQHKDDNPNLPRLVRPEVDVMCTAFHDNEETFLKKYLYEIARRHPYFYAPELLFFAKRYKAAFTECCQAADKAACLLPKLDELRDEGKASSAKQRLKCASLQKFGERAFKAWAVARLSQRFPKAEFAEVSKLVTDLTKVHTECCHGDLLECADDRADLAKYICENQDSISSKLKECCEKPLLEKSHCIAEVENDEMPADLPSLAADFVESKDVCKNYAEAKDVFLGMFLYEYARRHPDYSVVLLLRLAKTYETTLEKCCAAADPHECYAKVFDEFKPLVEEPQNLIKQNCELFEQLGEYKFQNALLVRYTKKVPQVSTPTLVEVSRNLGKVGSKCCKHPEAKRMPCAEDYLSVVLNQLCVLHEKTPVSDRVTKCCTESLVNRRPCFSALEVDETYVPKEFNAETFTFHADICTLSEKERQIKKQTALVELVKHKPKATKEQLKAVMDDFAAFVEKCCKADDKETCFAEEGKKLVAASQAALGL
In addition, to evaluate the selectivity of the proposed biosensor, some of bio-molecules such as human serum albumin (HSA), bovine serum albumin (BSA), glucose (G), urea (U), dopamine (D) and human immunoglobulin G (HIgG) were used as the potential interferences to evaluate the specificity and the results were shown in FIG. 7.

Chain of VEGF165 (P15692 other isoform, or with tags, fused parts or gaps): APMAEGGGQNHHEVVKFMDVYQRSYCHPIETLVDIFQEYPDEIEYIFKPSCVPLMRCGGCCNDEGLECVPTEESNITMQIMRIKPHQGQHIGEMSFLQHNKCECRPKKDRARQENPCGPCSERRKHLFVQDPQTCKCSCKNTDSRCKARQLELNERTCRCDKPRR

As to TTTCCCGTCTTCCAGACAAGAGTGCAGGG (ssDNA, 5'-SH (thiol), immobilised on Au segment of nanomotor) [anti-VEGF DNA aptamer], the binding result is “binds” with VEGF165 and “no binding” in series [1].

The values are drawn from US20180087116, “METHODS AND BIOSENSORS FOR TUMOR DETECTION” (published 2018).
